Publication PMC8325870, “SUMOylated non-canonical polycomb PRC1.6 complex as a prerequisite for recruitment of transcription factor RBPJ”

Target: RBPJ wt (UniProt P31266 1-526)
Test: EMSA; anti-Flag supershift; 10 mM Tris-HCl pH 7.5, 100 mM NaCl, 0.1 mM EDTA, 0.5 mM DTT, 4% glycerol, 10 ng poly(dI-dC), ~0.5 ng 32P-oligo, 2 or 4 ul reticulocyte lysate; temperature not stated
Conditions: protein: ivt; tags: Flag; label: 32P; 5' overhang 4 nt at both ends (CCTG on F, CTCG on R)

Chain of RBPJ wt (P31266 whole entry): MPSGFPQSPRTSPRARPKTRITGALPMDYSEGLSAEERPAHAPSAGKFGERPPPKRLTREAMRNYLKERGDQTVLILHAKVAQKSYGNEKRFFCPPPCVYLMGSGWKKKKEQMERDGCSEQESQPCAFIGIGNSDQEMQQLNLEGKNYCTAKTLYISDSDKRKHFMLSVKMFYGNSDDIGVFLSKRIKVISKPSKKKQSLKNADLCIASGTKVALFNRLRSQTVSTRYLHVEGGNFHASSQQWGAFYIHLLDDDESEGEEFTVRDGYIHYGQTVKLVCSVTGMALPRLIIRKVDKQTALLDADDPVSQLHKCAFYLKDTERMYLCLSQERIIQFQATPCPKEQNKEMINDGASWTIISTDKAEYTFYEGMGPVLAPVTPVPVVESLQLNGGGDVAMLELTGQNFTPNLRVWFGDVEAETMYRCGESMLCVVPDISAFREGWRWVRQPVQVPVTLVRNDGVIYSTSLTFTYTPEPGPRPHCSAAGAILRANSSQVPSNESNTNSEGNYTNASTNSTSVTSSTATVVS

B1: FO-233F/FO-233R (EBV TP-1 promoter, two RBPJ sites) (dsDNA)
DNA 1: CCTGGAACTATTTTCCCACGGTGCCCTTCCGCCCATTTTCCCACGAGTCG
DNA 2: CTCGCGACTCGTGGGAAAATGGGCGGAAGGGCACCGTGGGAAAATAGTTC
- binding result: binds
